T1: ACA8core (core of ACA8, residues 131-1074, construct lacking the regulatory domain) (UniProt Q9LF79 131-1074)
T1 construct: Embedded in MSP1D1/POPC nanodiscs in the assay; also called core enzyme; ACA8 mutant lacking the regulatory domain
T1 sequence (looked up): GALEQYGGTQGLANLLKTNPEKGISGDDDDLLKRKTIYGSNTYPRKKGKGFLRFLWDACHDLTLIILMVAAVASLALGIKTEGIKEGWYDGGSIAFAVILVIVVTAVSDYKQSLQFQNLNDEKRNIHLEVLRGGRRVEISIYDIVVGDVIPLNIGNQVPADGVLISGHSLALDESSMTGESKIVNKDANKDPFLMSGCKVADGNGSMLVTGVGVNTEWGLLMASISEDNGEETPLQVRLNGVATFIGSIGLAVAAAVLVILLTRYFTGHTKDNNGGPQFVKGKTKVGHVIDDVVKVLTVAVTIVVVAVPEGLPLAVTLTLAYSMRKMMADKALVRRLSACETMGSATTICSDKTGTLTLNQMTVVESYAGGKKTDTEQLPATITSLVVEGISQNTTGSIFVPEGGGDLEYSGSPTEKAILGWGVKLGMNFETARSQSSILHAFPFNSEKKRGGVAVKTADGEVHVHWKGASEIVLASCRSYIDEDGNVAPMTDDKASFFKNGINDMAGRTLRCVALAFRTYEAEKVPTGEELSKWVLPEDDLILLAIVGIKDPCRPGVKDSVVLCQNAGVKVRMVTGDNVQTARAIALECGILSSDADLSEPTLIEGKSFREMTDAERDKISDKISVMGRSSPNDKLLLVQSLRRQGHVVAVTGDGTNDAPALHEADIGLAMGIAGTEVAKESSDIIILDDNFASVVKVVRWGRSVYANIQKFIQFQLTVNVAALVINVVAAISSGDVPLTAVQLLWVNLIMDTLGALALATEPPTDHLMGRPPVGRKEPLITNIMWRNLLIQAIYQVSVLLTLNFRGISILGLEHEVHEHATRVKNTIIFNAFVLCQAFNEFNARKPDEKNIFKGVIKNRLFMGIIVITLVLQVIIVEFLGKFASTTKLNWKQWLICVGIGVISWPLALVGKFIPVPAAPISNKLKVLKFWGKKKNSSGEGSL


How the values were obtained:
[1] = molecular target: T2, fluorescein-labeled CaM (CaM7 from A. thaliana) (A. thaliana, UniProt P59220 1-149, Alexa Fluor 488 C5 maleimide label (the paper also calls it fluorescein-labeled and FITC-labeled); site not stated); test: fluorescence polarisation; fluorescence anisotropy; full-length ACA8 in POPC nanodiscs titrated into 15 nM labelled CaM; 20 °C; 30 mM Tris pH 8.0, 150 mM NaCl, 2 mM CaCl2, 0.5 mM TCEP; one-site model; apparent; conditions: both partners purified
T2 construct: calmodulin 7 (CaM7), A. thaliana; Same protein as m2 with a thiol-reactive fluorophore; also called FITC-labeled CaM; source: E. coli BL21 Gold (DE3), purified (HiTrap Phenyl HP), labelled, PD10 column

[2] = molecular target: T1, ACA8core (core of ACA8, residues …); test: fluorescence polarisation; fluorescence anisotropy; 25 µM ACA8core in POPC nanodiscs titrated into 50 nM labelled ACA8RD; 20 °C; 30 mM Tris pH 8.0, 150 mM NaCl, 2 mM CaCl2, 0.5 mM TCEP; one-site model; conditions: both partners purified

Row | Kd [1] | Kd [2] | Binder
1 | 18 nM | – | full-length ACA8 (plasma-membrane Ca2+-ATPase ACA8) (enzyme, Integral membrane protein; in most experiments embedded in MSP1D1 nanodiscs (POPC, POPC/POPG, POPC/soy-PI or deuterated stealth nanodiscs); The nanodisc belt protein is a carrier and not a partner; also called apo-ACA8; ACA8-ND; source: used DDM-solubilised or reconstituted in MSP1D1 nanodiscs (Superdex200)) MTSLLKSSPGRRRGGDVESGKSEHADSDSDTFYIPSKNASIERLQQWRKAALVLNASRRFRYTLDLKKEQETREMRQKIRSHAHALLAANRFMDMGRESGVEKTTGPATPAGDFGITPEQLVIMSKDHNSGALEQYGGTQGLANLLKTNPEKGISGDDDDLLKRKTIYGSNTYPRKKGKGFLRFLWDACHDLTLIILMVAAVASLALGIKTEGIKEGWYDGGSIAFAVILVIVVTAVSDYKQSLQFQNLNDEKRNIHLEVLRGGRRVEISIYDIVVGDVIPLNIGNQVPADGVLISGHSLALDESSMTGESKIVNKDANKDPFLMSGCKVADGNGSMLVTGVGVNTEWGLLMASISEDNGEETPLQVRLNGVATFIGSIGLAVAAAVLVILLTRYFTGHTKDNNGGPQFVKGKTKVGHVIDDVVKVLTVAVTIVVVAVPEGLPLAVTLTLAYSMRKMMADKALVRRLSACETMGSATTICSDKTGTLTLNQMTVVESYAGGKKTDTEQLPATITSLVVEGISQNTTGSIFVPEGGGDLEYSGSPTEKAILGWGVKLGMNFETARSQSSILHAFPFNSEKKRGGVAVKTADGEVHVHWKGASEIVLASCRSYIDEDGNVAPMTDDKASFFKNGINDMAGRTLRCVALAFRTYEAEKVPTGEELSKWVLPEDDLILLAIVGIKDPCRPGVKDSVVLCQNAGVKVRMVTGDNVQTARAIALECGILSSDADLSEPTLIEGKSFREMTDAERDKISDKISVMGRSSPNDKLLLVQSLRRQGHVVAVTGDGTNDAPALHEADIGLAMGIAGTEVAKESSDIIILDDNFASVVKVVRWGRSVYANIQKFIQFQLTVNVAALVINVVAAISSGDVPLTAVQLLWVNLIMDTLGALALATEPPTDHLMGRPPVGRKEPLITNIMWRNLLIQAIYQVSVLLTLNFRGISILGLEHEVHEHATRVKNTIIFNAFVLCQAFNEFNARKPDEKNIFKGVIKNRLFMGIIVITLVLQVIIVEFLGKFASTTKLNWKQWLICVGIGVISWPLALVGKFIPVPAAPISNKLKVLKFWGKKKNSSGEGSL
2 | – | 1700 nM | fluorescein-labeled regulatory domain of ACA8 (ACA8RD, residues 1-130) (domain or fragment, Alexa Fluor 488 C5 maleimide (the paper also calls it fluorescein) for labelling of the introduced cysteine, a cysteine introduced right before the first residue of the regulatory domain, for site specific labeling with thiol-reactive probes; ACA8 regulatory domain, residues 1-130; also called labeled RD; not shown: His6, N-terminal, cleaved; lipoamyl domain, N-terminal, cleaved) CMTSLLKSSPGRRRGGDVESGKSEHADSDSDTFYIPSKNASIERLQQWRKAALVLNASRRFRYTLDLKKEQETREMRQKIRSHAHALLAANRFMDMGRESGVEKTTGPATPAGDFGITPEQLVIMSKDHNS

Source: paper PMC6255812, “Structural basis for activation of plasma-membrane Ca^2+-ATPase by calmodulin” (Communications Biology, 2018)
